In data set [1] the target is T1, C.Esp1396I controller protein (UniProt Q8GGH0 1-79).
T1 sequence: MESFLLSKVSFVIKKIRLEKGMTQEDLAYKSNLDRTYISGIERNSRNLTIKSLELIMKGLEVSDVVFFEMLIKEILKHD
Put plainly: EMSA.

Data set [2] deals with the molecule itself.
The data set “native gel or EMSA” deals with the molecule itself. Put plainly: native gel or EMSA.

Residue numbers refer to the chain shown, from its start. Numbers in names are those of the source.

B1: OL (OR mutated) (dsDNA)
DNA 1: ATGTGACTTATAGTCCGTCTAGCCTAGCCTAGCCT
DNA 2: AGGCTAGGCTAGGCTAGACGGACTATAAGTCACAT
With B1, in data set [1], the binding result is “binds”.

B2: C.Esp1396I controller protein (wild type) (natural protein)
chain: GSHMESFLLSKVSFVIKKIRLEKGMTQEDLAYKSNLDRTYISGIERNSRNLTIKSLELIMKGLEVSDVVFFEMLIKEILKHD
In turn, B2 gave a Kd in data set [2] of roughly 600 nM.

B3: C.Esp1396I E25A mutant (natural protein)
chain: B2 chain with E28A
On to B3, for which, in the data set “native gel or EMSA”, the binding result is on record as “binds”.

For the origin of these results see paper PMC2504287 (Nucleic Acids Research, 2008).
